Assay results as given in US20080311034A1 (published 2008).

T1: recombinant polyhistidine tagged mouse FcγRIII (R&D Systems) (mouse, UniProt P08508 31-215)
T1 construct: Bought
T1 sequence (looked up): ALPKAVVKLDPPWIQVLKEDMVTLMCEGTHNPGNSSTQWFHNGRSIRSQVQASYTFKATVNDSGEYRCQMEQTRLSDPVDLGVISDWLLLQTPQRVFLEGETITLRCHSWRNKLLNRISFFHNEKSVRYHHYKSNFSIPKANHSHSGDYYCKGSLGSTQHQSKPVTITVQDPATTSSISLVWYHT

T2: recombinant polyhistidine tagged mouse FcγRII (R&D Systems) (mouse, UniProt P08101 40-217, limits assumed)
T2 construct: Bought; also called FcRII
T2 sequence (looked up): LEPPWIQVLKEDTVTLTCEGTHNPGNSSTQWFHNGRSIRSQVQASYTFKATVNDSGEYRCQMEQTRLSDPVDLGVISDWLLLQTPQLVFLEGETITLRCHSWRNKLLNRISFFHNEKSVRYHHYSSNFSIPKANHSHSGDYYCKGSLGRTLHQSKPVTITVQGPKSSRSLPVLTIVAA

T3: recombinant polyhistidine tagged mouse FcγRIV (R&D Systems) (mouse, UniProt A0A0B4J1G0 21-203)
T3 construct: Bought
T3 sequence: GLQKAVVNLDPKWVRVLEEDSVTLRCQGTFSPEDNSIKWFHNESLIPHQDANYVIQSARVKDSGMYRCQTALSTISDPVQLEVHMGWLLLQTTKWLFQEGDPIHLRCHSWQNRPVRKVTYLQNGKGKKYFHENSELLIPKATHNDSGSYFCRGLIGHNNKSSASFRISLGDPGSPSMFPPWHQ

T4: recombinant polyhistidine tagged mouse FcγRI (R&D Systems) (mouse, UniProt P26151 25-297)
T4 construct: Bought; also called murine FcγRI
T4 sequence (looked up): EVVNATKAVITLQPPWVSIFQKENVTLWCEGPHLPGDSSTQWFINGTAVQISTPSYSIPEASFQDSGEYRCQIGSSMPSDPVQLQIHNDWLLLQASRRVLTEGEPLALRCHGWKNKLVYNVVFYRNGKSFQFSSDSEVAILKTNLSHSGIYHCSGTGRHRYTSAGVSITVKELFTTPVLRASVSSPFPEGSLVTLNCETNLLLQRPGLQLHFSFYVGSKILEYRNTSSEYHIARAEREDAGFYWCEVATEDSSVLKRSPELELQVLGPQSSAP

B1: YB2/0-CNTO 860 A330I (antibody, IgG1)
heavy: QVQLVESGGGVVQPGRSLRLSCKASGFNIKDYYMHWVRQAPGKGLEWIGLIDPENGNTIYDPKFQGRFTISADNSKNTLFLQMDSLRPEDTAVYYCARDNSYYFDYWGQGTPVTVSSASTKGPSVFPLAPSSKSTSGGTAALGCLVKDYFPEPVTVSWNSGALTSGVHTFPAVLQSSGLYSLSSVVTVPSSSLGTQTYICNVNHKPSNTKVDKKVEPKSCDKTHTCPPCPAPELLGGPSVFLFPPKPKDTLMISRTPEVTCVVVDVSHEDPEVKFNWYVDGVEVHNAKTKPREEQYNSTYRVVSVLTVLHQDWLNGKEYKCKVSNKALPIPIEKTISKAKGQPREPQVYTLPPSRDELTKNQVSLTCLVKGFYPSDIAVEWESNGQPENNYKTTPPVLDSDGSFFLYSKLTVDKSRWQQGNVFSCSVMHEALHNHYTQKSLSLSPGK
light: DIQMTQSPSSLSASVGDRVTITCKASQDIRKYLNWYQQKPGKAPKLLIYYATSLADGVPSRFSGSGSGTDYTFTISSLQPEDIATYYCLQHGESPYTFGQGTKLEITRTVAAPSVFIFPPSDEQLKSGTASVVCLLNNFYPREAKVQWKVDNALQSGNSQESVTEQDSKDSTYSLSSTLTLSKADYEKHKVYACEVTHQGLSSPVTKSFNRGEC
modifications: N-linked glycan at heavy chain Asn297 (YB2/0-type, low fucose); not carried by the letters
notes: IgG1/kappa Fc variant; stably expressed in YB2/0 cells (p4177/p2402); EU numbering; also called A330I (YB2/0 cell-derived); A330I mutant expressed in YB2/0 cells; copies: 2 + 2
B2: YB2/0-CNTO 860 A330I/I332E (antibody, human IgG1, kappa)
heavy: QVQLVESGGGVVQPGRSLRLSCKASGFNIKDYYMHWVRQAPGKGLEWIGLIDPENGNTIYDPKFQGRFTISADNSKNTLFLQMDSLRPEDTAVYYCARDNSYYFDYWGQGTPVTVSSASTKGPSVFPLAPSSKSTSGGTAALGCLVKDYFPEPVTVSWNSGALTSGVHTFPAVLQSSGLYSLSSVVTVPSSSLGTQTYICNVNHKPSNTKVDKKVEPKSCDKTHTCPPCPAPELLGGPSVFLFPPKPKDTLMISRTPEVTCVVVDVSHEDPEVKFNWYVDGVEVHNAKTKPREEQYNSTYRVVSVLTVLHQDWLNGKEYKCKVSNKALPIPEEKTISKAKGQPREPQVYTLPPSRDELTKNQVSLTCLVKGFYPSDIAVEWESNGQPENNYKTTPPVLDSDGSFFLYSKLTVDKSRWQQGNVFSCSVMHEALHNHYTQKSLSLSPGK
light: B1 light
modifications: N-linked glycan at heavy chain Asn297 (YB2/0-type, low fucose); not carried by the letters
notes: IgG1/kappa Fc variant; stably expressed in YB2/0 cells (p4178/p2402); EU numbering; also called A330I/I332E (YB2/0 cell-derived); A330I/I332E from YB2/0 cells; copies: 2 + 2
B3: YB2/0-CNTO 860 A330Y (antibody, human IgG1, kappa)
heavy: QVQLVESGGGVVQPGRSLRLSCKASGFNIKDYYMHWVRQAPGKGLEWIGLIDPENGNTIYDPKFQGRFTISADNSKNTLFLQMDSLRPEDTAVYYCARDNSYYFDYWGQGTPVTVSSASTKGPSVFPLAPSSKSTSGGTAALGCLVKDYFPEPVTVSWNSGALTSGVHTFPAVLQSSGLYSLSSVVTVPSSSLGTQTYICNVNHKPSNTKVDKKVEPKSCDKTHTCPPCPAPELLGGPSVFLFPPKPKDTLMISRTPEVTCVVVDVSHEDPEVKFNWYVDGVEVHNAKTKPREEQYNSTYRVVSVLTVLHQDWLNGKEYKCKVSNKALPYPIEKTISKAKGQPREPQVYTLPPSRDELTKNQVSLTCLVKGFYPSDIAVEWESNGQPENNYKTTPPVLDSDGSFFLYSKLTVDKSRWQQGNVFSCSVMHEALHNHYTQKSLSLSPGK
light: B1 light
modifications: N-linked glycan at heavy chain Asn297 (YB2/0-type, low fucose); not carried by the letters
notes: IgG1/kappa Fc variant; stably expressed in YB2/0 cells (p4176/p2402); EU numbering; also called A330Y (YB2/0 cell-derived); copies: 2 + 2
B4: YB2/0-CNTO 860 I332E (antibody, human IgG1, kappa)
heavy: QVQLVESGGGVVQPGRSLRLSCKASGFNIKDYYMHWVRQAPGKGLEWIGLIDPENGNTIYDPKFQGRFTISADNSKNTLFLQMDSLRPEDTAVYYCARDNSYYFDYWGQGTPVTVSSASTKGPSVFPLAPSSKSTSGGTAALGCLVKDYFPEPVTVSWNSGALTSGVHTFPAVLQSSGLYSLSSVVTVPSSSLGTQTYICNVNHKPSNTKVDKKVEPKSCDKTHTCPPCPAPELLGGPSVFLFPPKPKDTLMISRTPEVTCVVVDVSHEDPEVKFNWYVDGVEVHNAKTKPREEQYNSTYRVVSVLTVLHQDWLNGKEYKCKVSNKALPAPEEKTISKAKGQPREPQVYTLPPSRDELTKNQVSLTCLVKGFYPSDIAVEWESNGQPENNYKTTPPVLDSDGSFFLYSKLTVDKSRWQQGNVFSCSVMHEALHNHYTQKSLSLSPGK
light: B1 light
modifications: Heavy chain N297 carries the YB2/0-type low-fucose N-linked glycan; not carried by the letters.
notes: IgG1/kappa Fc variant; stably expressed in YB2/0 cells (p4148/p2402), low-fucose glycan; EU numbering; also called I332E (YB2/0 cell-derived); I332E from YB2/0 cells; copies: 2 + 2
B5: YB2/0-CNTO 860 S239D/I332E (antibody, human IgG1, kappa)
heavy: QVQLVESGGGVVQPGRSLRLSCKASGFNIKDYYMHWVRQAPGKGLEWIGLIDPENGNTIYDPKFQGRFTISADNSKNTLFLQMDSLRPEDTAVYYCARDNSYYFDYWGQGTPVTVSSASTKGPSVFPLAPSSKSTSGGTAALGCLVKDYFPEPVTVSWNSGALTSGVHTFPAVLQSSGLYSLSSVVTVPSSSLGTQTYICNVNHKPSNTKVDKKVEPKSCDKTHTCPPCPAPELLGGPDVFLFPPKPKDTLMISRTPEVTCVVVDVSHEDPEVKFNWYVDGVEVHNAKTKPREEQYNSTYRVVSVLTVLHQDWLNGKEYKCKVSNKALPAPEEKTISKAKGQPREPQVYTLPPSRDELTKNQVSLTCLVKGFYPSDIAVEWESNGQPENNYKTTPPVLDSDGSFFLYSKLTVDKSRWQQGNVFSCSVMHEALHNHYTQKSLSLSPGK
light: B1 light
modifications: N-linked glycan at heavy chain Asn297 (YB2/0-type, low fucose); not carried by the letters
notes: IgG1/kappa Fc variant; stably expressed in YB2/0 cells (p4179/p2402); EU numbering; also called S239D/I332E (YB2/0 cell-derived); copies: 2 + 2
B6: YB2/0-CNTO 860 V264I/I332E (antibody, human IgG1, kappa)
heavy: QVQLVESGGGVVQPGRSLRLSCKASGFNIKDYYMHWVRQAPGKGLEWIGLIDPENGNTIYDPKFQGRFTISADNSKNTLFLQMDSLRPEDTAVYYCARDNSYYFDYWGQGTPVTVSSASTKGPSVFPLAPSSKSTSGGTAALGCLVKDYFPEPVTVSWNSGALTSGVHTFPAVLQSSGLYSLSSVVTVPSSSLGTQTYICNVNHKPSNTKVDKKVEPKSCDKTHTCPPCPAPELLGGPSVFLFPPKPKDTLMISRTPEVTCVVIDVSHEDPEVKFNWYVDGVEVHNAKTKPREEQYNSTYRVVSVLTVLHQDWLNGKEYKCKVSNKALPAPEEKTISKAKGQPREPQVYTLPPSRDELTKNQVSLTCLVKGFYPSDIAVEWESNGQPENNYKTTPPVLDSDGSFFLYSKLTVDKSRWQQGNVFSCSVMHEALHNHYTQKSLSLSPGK
light: B1 light
modifications: N-linked glycan at heavy chain Asn297 (YB2/0-type, low fucose); not carried by the letters
notes: IgG1/kappa Fc variant; stably expressed in YB2/0 cells (p4180/p2402); EU numbering; also called V264I/I332E (YB2/0 cell-derived); copies: 2 + 2
B7: YB2/0-CNTO 860 WT (antibody, human IgG1, kappa)
heavy: not shown
light: B1 light
modifications: Heavy chain N297 carries the YB2/0-type N-linked glycan (40-60% fucosylated); not carried by the letters.
notes: Anti-human tissue factor human IgG1/kappa; stably expressed in rat YB2/0 cells (p2401/p2402; YB2/0 Abs typically 40-60% fucosylated), purified by protein A; also called WT (YB2/0 cell-derived); WT from YB2/0 cells; copies: 2 + 2

How the values were obtained:
[1] = biological target: T1, recombinant polyhistidine tagged mouse …; experiment: ELISA, His-tagged mouse receptor captured on copper-coated plate
Description: (§1) Commercially-available recombinant polyhistidine tagged mouse FcγRI, FcγRII, FcγRIII, and FcγRIV (R&D Systems) were diluted to 1 μg/ml in PBS and 100 μl/well was captured onto copper-coated plates (Pierce) overnight at 4° C. Plates were washed three times with wash buffer (0.15M NaCl, 0.02% Tween 20). Non-specific binding was blocked using 200 μl/well SuperBlock (Pierce) for 15 minutes at room temperature. Plates were washed three times as above. […] Plates were washed three times as above to remove unbound mAb. CNTO 860 variants that bound to plated receptors were detected using 100 μl/well HRP-labeled goat F(ab′)₂ anti-human IgG F(ab′)₂ (Jackson ImmunoResearch) diluted 1:5,000 in PBS incubated at room temperature for 1 hour. Plates were washed five times using wash buffer as above, and developed using 100 μl/well TMB Stable Stop substrate (Fitzgerald Industries) stopped with 0.5M HCl. Absorbance was detected at 450 nm.
(§2) All binding assays were in an ELISA format, with recombinant soluble receptor captured on coated EIA plates.

[2] = biological target: T2, recombinant polyhistidine tagged mouse …; experiment: as above
Description: as §1, §2

[3] = biological target: T3, recombinant polyhistidine tagged mouse …; experiment: as above
Description: as §1, §2

[4] = biological target: T4, recombinant polyhistidine tagged mouse …; experiment: as above
Description: as §1, §2

[5] = biological target: T5, FcγRIIIa on NK cells of human PBMC (human, UniProt P08637 17-254); experiment: cell-based or functional assay
T5 sequence (P08637 17-254): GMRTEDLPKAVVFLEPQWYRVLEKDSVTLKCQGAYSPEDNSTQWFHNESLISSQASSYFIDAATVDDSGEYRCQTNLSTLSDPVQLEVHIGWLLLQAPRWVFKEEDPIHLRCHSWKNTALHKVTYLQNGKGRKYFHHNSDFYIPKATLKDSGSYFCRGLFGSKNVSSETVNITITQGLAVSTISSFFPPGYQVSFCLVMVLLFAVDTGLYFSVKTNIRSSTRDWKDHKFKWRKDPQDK

[6] = biological target: T6, recombinant human His-tagged FcγRIIIa (extracellular domain made at Centocor) (human, UniProt P08637 17-208); experiment: ELISA
T6 construct: extracellular domain; also called CD16a; recombinant, soluble, human FcγRIIIa
T6 sequence (P08637 17-208): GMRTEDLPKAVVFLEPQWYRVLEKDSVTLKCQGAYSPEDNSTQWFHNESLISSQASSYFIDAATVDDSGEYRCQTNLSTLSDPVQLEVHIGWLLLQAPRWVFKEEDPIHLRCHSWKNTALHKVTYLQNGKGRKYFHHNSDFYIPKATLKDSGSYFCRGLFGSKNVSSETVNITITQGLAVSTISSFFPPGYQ
Description: FcγRI (CD64) ELISA —50 μl of a 1 μg/ml solution of recombinant human His-tagged FcγRI (extracellular domain, R&D Systems #1257-FC-050) in ELISA buffer (PBS, pH 7.4, 4 mg/ml BSA, 0.01% Tween-20) was added to each well of HisGrab 96 well plates (Pierce #15142) (Powers G., Notebook 9006, pp. 166-168, 180-181). The plate was incubated with shaking for 3 hours. The plates were washed 3× with 300 μl of wash buffer (PBS, 0.01% Tween-20) on a plate washer. Serial dilutions of the CNTO860 antibody Fc-variant samples were made in ELISA buffer and 50 μl per well of each titration were added in duplicate to the FcγRI-coated plates. The plates were incubated with shaking for 1 hour. The plates were washed 3× with 300 μl of wash buffer on a plate washer. 50 μl of a 1:10,000 dilution of HRP-labeled goat F(ab′)₂ anti-human IgG F(ab′)₂ (Jackson Immunoresearch # 109-036-097) in ELISA buffer was added to each well. The plates were incubated with shaking for 30 minutes. The plates were washed 3× with 300 μl of wash buffer on the plate washer. 50 μl per well TMB substrate (RDI #RDI-TMBSU-1L) was added to each well and developed for 5 minutes. The reaction was stopped by adding 100 μl 0.2 N sulfuric acid. The plates were read at OD450 on an Envision plate reader.
FcγRIIIa (CD16a) ELISA—A human FcγRIIIa binding assay was done in ELISA format similar to the assay for FcγRI above. 50 μl of a 2 μg/ml solution of recombinant human His-tagged FcγRIIIa (extracellular domain made at Centocor) in ELISA buffer (PBS, 4 mg/ml BSA, 0.01% Tween-20) was added to each well of HisGrab 96 well plates (Pierce #15142) (Powers G., Notebook 10378, 19-23). The plate was incubated for 3 hours at room temp. The plates were blocked with 200 μl of Starting Block (Pierce #15142) for 30 min, and then washed 3× with 300 μl of wash buffer (PBS, 0.01% Tween-20) on a plate washer. Serial dilutions of the CNTO 860 test samples were made in Starting Block buffer and 50 μl per well of each titration were added in duplicate to the FcγRIIIa-coated plates. The plates were incubated for 1 hour. The plates were washed 3× with 300 μl of wash buffer on a plate washer. 50 μl of a 1:10,000 dilution of HRP-labeled goat F(ab′)2 anti-human IgG F(ab′)2 (Jackson Immunoresearch # 109-036-097) in Starting Block buffer was added to each well. The plates were incubated for 30 minutes.

[7] = biological target: T5, FcγRIIIa on NK cells of human PBMC; experiment: cell-based or functional assay; remark: listed apart in the source

Binder	ECOD1 (concentration required for an O.D. value of 1.0) [1]	ECOD1 (concentration required for an O.D. value of 1.0) [2]	ECOD1 (concentration required for an O.D. value of 1.0) [3]	ECOD1 (concentration required for an O.D. value of 1.0) [4]	EC25 (ng/ml), ADCC of HCT116 cells by human PBMC [5]	fold better binding than WT from YB2/0 cells [6]	fold change of the concentration for 25% lysis against WT CNTO860 from CHO host cells [7]	fold potency in ADCC against YB2/0-CNTO 860 WT [7]	fold better binding than WT from CHO [6]
B1	8000 ng/mL	7000 ng/mL	15 ng/mL	25000 ng/mL	0.7 ng/mL	–	–	–	–
B2	3000 ng/mL	3000 ng/mL	7 ng/mL	10000 ng/mL	0.15 ng/mL	6 fold	–	–	–
B3	6500 ng/mL	6000 ng/mL	30 ng/mL	4000 ng/mL	0.4 ng/mL	–	–	–	–
B4	600 ng/mL	700 ng/mL	7 ng/mL	5000 ng/mL	0.3 ng/mL	~10 fold	~100 fold	~8 fold	~30 fold
B5	2800 ng/mL	6000 ng/mL	7 ng/mL	1900 ng/mL	0.2 ng/mL	–	–	–	–
B6	6000 ng/mL	1600 ng/mL	7 ng/mL	3000 ng/mL	0.12 ng/mL	–	–	–	–
B7	4000 ng/mL	3000 ng/mL	30 ng/mL	12000 ng/mL	–	–	–	–	~3 fold
